{
  "source": "patent US20160002338A1",
  "about": "(Hoffmann-La Roche, published 2016)",
  "binders": {"B1": {"name": "anti-HER3/HER4 antibody M-05-74 (antibody, V domains shown)", "VH": "QVQLQQSGAELAKPGASVKMSCKTSGYTLTDYWIHWVKQRPGQGLEWIGYINPYTGYTESNQKFKDKATLTADKSSNTAYIQLSSLTSEDSAVYYCARPYYYGDYWGQGTTLTVSS", "VL": "QIVLTQSPAIMSASPGERVTITCSASSSVSYMHWFQQKPGTSPKLLIYSTSNLASGVPARFSGSGSGTSYSLTISRMEAEDAATYYCQQRSSYPFTFGSGTKLEIK", "notes": "murine monoclonal antibody from hybridoma (supernatant or purified); also called M-074; M-5-74"}},
  "experiment_in_all_cases": "SPR Biacore 3000, antibody captured, 25 C",
  "key": {"[1]": {"biological_target": "T1, human recombinant HER3 ECD (human, UniProt P21860 20-643)", "T1 construct": "68 kDa; also called human-Her3-ECD; full length Her3 ECD", "T1 sequence (P21860 20-643)": "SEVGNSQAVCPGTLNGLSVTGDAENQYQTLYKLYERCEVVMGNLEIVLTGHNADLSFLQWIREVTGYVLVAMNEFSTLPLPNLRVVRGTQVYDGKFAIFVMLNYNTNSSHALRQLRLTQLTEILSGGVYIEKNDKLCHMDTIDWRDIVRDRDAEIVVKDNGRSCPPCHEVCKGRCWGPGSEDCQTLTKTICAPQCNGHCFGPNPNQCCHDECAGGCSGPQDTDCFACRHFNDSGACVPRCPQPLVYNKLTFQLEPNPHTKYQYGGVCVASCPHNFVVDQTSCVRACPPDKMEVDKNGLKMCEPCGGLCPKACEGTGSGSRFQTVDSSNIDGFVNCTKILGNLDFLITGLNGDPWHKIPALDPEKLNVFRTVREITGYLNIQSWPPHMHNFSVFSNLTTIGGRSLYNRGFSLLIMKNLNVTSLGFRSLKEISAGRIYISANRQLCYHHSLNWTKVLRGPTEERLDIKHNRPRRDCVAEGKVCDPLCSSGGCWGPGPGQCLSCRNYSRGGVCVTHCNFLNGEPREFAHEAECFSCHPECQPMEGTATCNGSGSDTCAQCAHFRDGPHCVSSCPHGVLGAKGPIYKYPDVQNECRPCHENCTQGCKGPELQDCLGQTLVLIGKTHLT", "procedure": "(§1) A CM5 series sensor was mounted into the system and was normalized in HBS-ET buffer (10 mM HEPES pH 7.4, 150 mM NaCl, 3 mM EDTA, 0.005% w/v Tween 20) according to the manufacturer's instructions. The sample buffer was the system buffer supplemented with 1 mg/ml CMD (Carboxymethyldextran). The system operated at 25° C. 10000 RU RAM-Fcγ(relative units of Fcγ-fragment Rabbit Anti-Mouse IgG/Jackson Laboratories) were immobilized according to the manufacturer's instructions using EDC/NHS chemistry on all flow cells. The sensor was deactivated using 1M ethanolamine. Analytes in solution were injected at 100 μl/min at different concentration steps of 0 nM, 1.1 nM, 3.7 nM, 11.1 nM, 33.1 nM and 90 nM for 2 min. The dissociation was monitored for 5 min. Acidic regeneration of the sensor surface was achieved using three consecutive injections of 10 mM Glycine pH 1.7 at 30 μl/min for 60 sec. Kinetic data were evaluated according to a Langmuir fit."}, "[2]": {"biological_target": "T2, TtSlyD-FKBP-Her3", "T2 construct": "15 kDa; N-terminal Met may be present or not; also called Thermus thermophilus SlyD FKBP-Her3; thermo SlyD-Her3", "T2 chain": "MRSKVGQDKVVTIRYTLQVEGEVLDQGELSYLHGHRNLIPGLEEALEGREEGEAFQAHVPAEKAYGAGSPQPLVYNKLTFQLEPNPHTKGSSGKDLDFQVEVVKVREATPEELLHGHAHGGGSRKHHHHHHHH", "procedure": "as §1"}, "[3]": {"biological_target": "T3, HER3 ECD-HRG complex (human, UniProt P21860 20-643)", "T3 construct": "also called Heregulin/Her-3 ECD", "T3 sequence (P21860 20-643 limits assumed, one chain of several)": "as the sequence (P21860 20-643) above", "procedure": "as §1"}},
  "data": [
    {"binder": "B1", "values": [
      {"measurement": "Binding Late BL", "setting": "[1]", "value": 36, "unit": "RU"},
      {"measurement": "Molar Ratio MR", "setting": "[1]", "value": 0.2},
      {"measurement": "Binding Late BL", "setting": "[2]", "value": 68.1, "unit": "RU"},
      {"measurement": "Molar Ratio MR", "setting": "[2]", "value": 1.5},
      {"measurement": "Binding Late BL", "setting": "[3]", "value": 199, "unit": "RU"},
      {"measurement": "Molar Ratio MR", "setting": "[3]", "value": 0.8}
    ]}
  ]
}
